How the values were obtained:
Type in all cases: biochemical
[1] = Fluorimetric arylsulfatase assay using 4-MUS
Protocol: Arylsulfatase activity was measured independently using two chromogenic substrates, 4-catechol-sulfate and 4-methylumbelliferyl-sulfate (4-MUS). The catechol substrate assay was conducted generally as described (Beil et al., 1995 Eur J Biochem 229, 385-394). Briefly, 10 mM substrate were incubated with ˜30 μM recombinant enzyme overnight (12-15 hours) at 37° C. in a 100 μL reaction which included 50 mM MES pH 7.0 and +2 mM CaCl2. Reactions were quenched by the addition of 5 μL 5M NaOH and colorimetric activity determined spectroscopically at 515 nm. Fluorimetric arylsulfatase assay using 4-MUS was as described (Morimoto-Tomita et al., 2002 J Biol Chem 277, 49175-85) with some modifications. Reaction conditions included 10 μM enzyme, 2 mM 4-MUS, 50 mM sodium acetate, pH 6.0, and 5 mM CaCl2 in a 20 μL reaction volume. The enzyme incubation temperature was 30° C. Activity was measured as a function of time ranging from 3 to 24 hours; the reactions were quenched by the addition of 200 μL 0.5 M Na2CO3, pH 10.7. Detection of fluorescent methylumbelliferone was measured at this alkaline pH using a SpectraMax microtiter plate reader ([…], Sunnyvale, Calif.) set at excitation and emission wavelengths of 360 and 440 nm, respectively. Fluorescence intensity was corrected against background (minus enzyme control). In both assays, 0.5 unit of arylsulfatase from Aerobacter aerogenes (Sigma, St. Louis, Mo.) was used as a positive control.

[2] = Coupled N-sulfamidase/α-glucosidase fluorimetric plate assay (reaction conditions, steady-state kinetics)
Description: Indirect measurement of enzyme activity was also made using a fluorimetrically-based plate assay in which the prerequisite desulfation of the appropriate glucopyranoside 1→4 methlybelliferone substrate by either the 6-O-sulfatase or N-sulfamidase was coupled to the glucosidase-mediated hydrolysis of the stereo-specific 1→4 glycosidic linkage between the pyranose ring and the adjoining fluorophore. Release of the free fluorophore (4-MU) was monitored spectroscopically as described above for the arylsulfatase assay using 4-MU sulfate. The two sulfatase assays differed in the choice of substrate in accordance to their specificity as well as the glucosidase added during the second, […] step. For the 6-O-sulfatase, the hydrolysis of the substrate 4-MU-β-D-GlcNAc,6S at the 6-OH position was coupled to β-glucosidase purified from sweet almonds (MP Biomedicals, Solon, Ohio, Catalog No. 195197). Likewise, N-sulfamidase hydrolysis of 4-MU-α-D-GlcNS at the 2-amino position was coupled to α-glucosidase (MP Biomedicals, Catalog No. 153487). […] The presumption of the first (sulfatase) activity being the rate-limiting step was established experimentally. Reaction conditions were optimized to satisfy three related criteria: 1) linear readout of fluorescent signal which is directly proportional to sulfatase activity; 2) quantitative release of 4-MU by glucosidase activity under every biochemical condition examined and; 3) negligible fluorescent quenching of the free chromophore.
Coupled N-sulfamidase assay was generally described for the 6-O-sulfatase, but with the following modifications: 4-MU-GlcNS as substrate, 50 mM sodium acetate at pH 6.0 (instead of 5.5) and 1 μM enzyme. For the second enzyme step, 5 units of α-glucosidase were added. Enzyme incubation was carried out for 22 hours at 37° C. The obvious difference in enzyme efficacies between α-glucosidase versus β-glucosidase is reflected in the substantially longer incubation times required for the α-glucosidase to quantitatively hydrolyze the glycosidic α1→4 linkage between the fluorophore and the desulfated glucosamine. […]

[3] = CE-LIF detection of sequentially degraded oligosaccharides; details: after Δ4,5 glycuronidase treatment of ΔUHNSIHNSIHNS
Protocol: The APTS derivitization protocol was adapted from Chen et al. (Chen F. T. A., and Evangelista R. A. (1995) Analytical Biochemistry 230, 273-280). Briefly, 2 μl of 100 mM 9-aminopyrene-1,4,6-trisulfonate (APTS) in 25% acetic acid (v/v) were mixed with 10 μl of 1M sodium cyanoborohydride in tetrohydrofuran and 1 μmol of saccharide. The reaction mixture was incubated at 75° C. for 2 hr and was diluted 1:100 prior to CE analysis. CE-LIF was performed on a Beckman Coulter ProteomeLab PA 800 with 488 nm argon LIF module. Samples were loaded onto a N—CHO capillary (50 μm I.D.×65 cm total length) using 0.5 psi of pressure at the anode for 20 sec. Electrophoretic separations were performed using a 20 kV potential in a 100 mM sodium borate, pH 10.2 buffer for 15 min at 25° C. Fluorescence emission spectra were collected using a 520 nm narrow band filter.

B1: Flavobacterium heparinum 6-O-sulfatase (ORF B), recombinant, NH2-terminal truncation lacking signal sequence, SEQ ID NO: 2 (Pedobacter heparinus DSM 2366) (protein)
chain: TLMSCQQPKPAESAKRPNIVFIMTDDHTIQAISAYGSKLVKTPNLDRIANEGMLFNNCFVTNAVCGPSRATILTGKYSHLNGLTDNSKVFDSTQVIYPQLLKKAGYQTAMIGKWHLGSTPMGFDYYSILPNQGQYYQPEFIENGHLVKEKGYVTDLITDKAIGFLEKRDHDKPFLMIYQHKAPHRNWLPAPRHLGMFDDTVFPEPANLLDDFKGRGRAAKEQLMNISTDMWPAWDLKMLSTAQLDSMAKLPVSPKFKDAKGDDYQQANDPSLDKARFFEVYNRMTDAEKVQWRKVYDKRVAEFKRLNPKGADLVRWKYQQYMRDYLACVVSVDENVGRLMDYLKKIGELDNTIIVYTSDQGFYLGEHGYFDKRFMYDESFRTPLMVRYPPSVKAGSVSNAFAMNLDFAPTLLDYAGVKIPADMQGLSLRPVLDNAGKSPENWRKAVYYHYYEFPSWHMVKRHYGIRTERYKLIHFYNDIDEWELYDMQKDPHEMQNLYNDKAYEPIIKDLKVQMKKLQVQYKDTNPTEAL
notes: E. coli BL21(DE3), N-terminal 6xHis removed by thrombin
[1]
  hydrolysis of 4-MU sulfate: partly hydrolyze
  rate of 4-MU sulfate hydrolysis relative to the ORF C protein: at least 3 fold

B2: Flavobacterium heparinum N-sulfamidase (ORF C), recombinant, NH2-terminal truncation lacking signal sequence, SEQ ID NO: 4 (Pedobacter heparinus DSM 2366) (protein)
chain: SCTSPEKKTDRPNILMIMSDNQSWNHVGSYGDQTVRTPNMDRIAKEGVRFTNAFCSSPSCTPARAGMLTGQDIWRLEDGGNLWGVLPVKYKVYPDLLEEAGYAIGFQGKGWGPGSFEANKRPRNPAGNEFKSFGAFLKDKKEGPWCYWISSHEPHRPYVEGSGEKAGIDPNKVKVPAYLPDHISIRKDIADYYAAVETFDRELGEALDQLKASGELDNTVIVVCSDNGWQMPRGLANLYDFGTHVPLIISWPGKFKQDVVADNLVTLNDLAPTFLQLGKVPVPADMTGKSLLPIVEAGKKDEKPRDYVVLGRERHAFVRRHGLGYPGRAIRTKDYLYIKNYEPNRWPAGDPPFYGDIDPYMFNWPGETKYYLIEHKDDPKVKSFFELGMGKRPAEELFDINKDPDELHNLAALPEYQKIKQELVAKLRNYLVATKDPRETNGNIQIWDTAAYFSEIDKTPKPSKEMQKRFKLDSSYNYLK
notes: as for B1
[2]
  calcium requirement for activity: required calcium for activity
[2]; 1 mM or 5 mM divalent metal
  effect of Mg^+2 or Mn^+2 on activity: only negligible effects
[2]; 1 M NaCl
  activity remaining relative to the zero NaCl control: less than 20%
[1]
  hydrolysis of 4-MU sulfate: only negligible activity
[3]
  desulfation of oligosaccharide at the non-reducing end: does desulfate some oligosaccharides in an exolytic fashion
